In publication PMC3727926 (Molecular Biology of the Cell, 2013):

T1: GST-Bud2-N, GST-tagged N-terminal 336 amino acids of Bud2p (S. cerevisiae, UniProt P33314 1-336)
T1 sequence (looked up): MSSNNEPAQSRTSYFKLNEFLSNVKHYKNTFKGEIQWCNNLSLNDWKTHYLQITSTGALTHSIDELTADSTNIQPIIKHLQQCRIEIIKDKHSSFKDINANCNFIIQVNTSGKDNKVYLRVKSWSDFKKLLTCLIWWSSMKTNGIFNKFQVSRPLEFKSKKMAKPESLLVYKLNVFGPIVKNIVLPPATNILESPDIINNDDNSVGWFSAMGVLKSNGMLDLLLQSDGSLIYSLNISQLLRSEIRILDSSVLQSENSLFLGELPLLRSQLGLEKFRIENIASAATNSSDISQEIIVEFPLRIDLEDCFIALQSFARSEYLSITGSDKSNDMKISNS

T2: His-Arf3, purified, prebound with GTPγS or GDP (S. cerevisiae, UniProt P40994 1-183)
T2 sequence (looked up): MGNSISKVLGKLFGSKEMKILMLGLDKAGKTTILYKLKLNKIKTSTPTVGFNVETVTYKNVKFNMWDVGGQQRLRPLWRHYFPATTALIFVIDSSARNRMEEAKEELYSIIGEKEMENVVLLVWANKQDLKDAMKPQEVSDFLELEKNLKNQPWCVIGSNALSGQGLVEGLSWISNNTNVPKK

B1: His-Arf3^Q71L, recombinant histidine-tagged constitutively active Arf3 (natural protein, S. cerevisiae, UniProt P40994 1-183, looked up)
chain: MGNSISKVLGKLFGSKEMKILMLGLDKAGKTTILYKLKLNKIKTSTPTVGFNVETVTYKNVKFNMWDVGGLQRLRPLWRHYFPATTALIFVIDSSARNRMEEAKEELYSIIGEKEMENVVLLVWANKQDLKDAMKPQEVSDFLELEKNLKNQPWCVIGSNALSGQGLVEGLSWISNNTNVPKK

How the values were obtained:
Experiment in all cases: pull-down
[1] = target: T1, GST-Bud2-N, GST-tagged N-terminal 336 …
[2] = target: T2, His-Arf3, purified, prebound with GTPγS …
[3] = target: B1

binding result [1] | binding result [2] | binding result [3] | Binder
binds | – | – | B1
– | binds | binds | GST-Bud2N1, GST-tagged first 120 residues of Bud2p (domain or fragment, S. cerevisiae, UniProt P33314 1-120, looked up) MSSNNEPAQSRTSYFKLNEFLSNVKHYKNTFKGEIQWCNNLSLNDWKTHYLQITSTGALTHSIDELTADSTNIQPIIKHLQQCRIEIIKDKHSSFKDINANCNFIIQVNTSGKDNKVYLR
